Residue numbers refer to the chain shown, from its start. Read-outs that look alike come from different tables or passages of the source.
Experiments:
[1] = target: T1, mouse GPNMB endogenously expressed on B16F10 cells (mouse, UniProt Q99P91 23-574); assay: FACS titration, B16F10 cells
T1 construct: whole, on cells; also called moGPNMB
T1 sequence (looked up): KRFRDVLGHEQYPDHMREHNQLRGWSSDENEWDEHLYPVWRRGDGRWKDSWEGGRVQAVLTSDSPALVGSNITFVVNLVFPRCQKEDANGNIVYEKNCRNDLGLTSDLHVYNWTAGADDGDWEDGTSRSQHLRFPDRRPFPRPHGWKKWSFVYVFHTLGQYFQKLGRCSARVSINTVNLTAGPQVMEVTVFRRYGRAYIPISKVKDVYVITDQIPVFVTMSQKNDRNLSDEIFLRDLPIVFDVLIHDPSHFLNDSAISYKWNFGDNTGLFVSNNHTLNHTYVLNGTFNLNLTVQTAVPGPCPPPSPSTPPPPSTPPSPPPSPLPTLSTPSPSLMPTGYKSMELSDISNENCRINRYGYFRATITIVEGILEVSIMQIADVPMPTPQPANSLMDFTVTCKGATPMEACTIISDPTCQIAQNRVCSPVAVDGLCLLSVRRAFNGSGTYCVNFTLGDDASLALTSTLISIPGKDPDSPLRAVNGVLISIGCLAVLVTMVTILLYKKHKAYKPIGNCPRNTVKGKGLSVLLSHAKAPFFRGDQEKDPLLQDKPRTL
Description: Cell-based binding measurements were also performed to measure the apparent affinities of anti-GPNMB antibodies of the present disclosure to cell-surface expressed GPNMB. Serial dilutions of the monoclonal anti-GPNMB antibodies were added to 100,000 Freestyle293-huGPNMB+ or B16F10 cells and allowed to achieve binding equilibrium at 4° C. After addition of fluorescently labeled secondary antibody and brief washing steps, MFI values as a function of titrated antibody concentration was recorded via FACS analysis. Curves were fit using nonlinear regression analysis with Graphpad Prism 6 software.

[2] = target: T2, full-length untagged human GPNMB expressed on cells (human, UniProt Q14956 23-572); assay: cell-based or functional assay
T2 sequence: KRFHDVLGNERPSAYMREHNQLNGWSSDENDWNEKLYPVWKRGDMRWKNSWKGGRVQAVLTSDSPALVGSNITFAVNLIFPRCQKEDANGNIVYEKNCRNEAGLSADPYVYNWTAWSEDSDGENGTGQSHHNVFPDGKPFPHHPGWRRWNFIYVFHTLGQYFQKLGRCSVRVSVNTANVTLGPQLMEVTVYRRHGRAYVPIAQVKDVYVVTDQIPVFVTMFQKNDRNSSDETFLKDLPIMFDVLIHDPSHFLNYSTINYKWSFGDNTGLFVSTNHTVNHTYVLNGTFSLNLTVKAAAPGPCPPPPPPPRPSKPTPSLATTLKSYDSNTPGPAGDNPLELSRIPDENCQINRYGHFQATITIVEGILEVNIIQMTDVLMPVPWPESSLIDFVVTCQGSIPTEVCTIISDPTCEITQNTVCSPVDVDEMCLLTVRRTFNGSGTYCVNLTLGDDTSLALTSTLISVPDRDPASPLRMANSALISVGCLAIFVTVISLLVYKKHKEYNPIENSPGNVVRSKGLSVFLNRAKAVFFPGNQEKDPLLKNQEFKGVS

[3] = target: T2, full-length untagged human GPNMB …; assay: cell-based or functional assay; remark: listed apart in the source
[4] = target: T3, soluble mouse GPNMB-Fc polypeptide (mouse IgG2A Fc) (mouse, UniProt Q99P91 23-502); assay: FACS, blocking of mGPNMB-Fc binding to SVEC cells
T3 construct: extracellular domain; bought (R&D System); also called moGPNMB-Fc; mGPNMB-Fc; not shown: Fc region of mouse IgG2A
T3 sequence (looked up): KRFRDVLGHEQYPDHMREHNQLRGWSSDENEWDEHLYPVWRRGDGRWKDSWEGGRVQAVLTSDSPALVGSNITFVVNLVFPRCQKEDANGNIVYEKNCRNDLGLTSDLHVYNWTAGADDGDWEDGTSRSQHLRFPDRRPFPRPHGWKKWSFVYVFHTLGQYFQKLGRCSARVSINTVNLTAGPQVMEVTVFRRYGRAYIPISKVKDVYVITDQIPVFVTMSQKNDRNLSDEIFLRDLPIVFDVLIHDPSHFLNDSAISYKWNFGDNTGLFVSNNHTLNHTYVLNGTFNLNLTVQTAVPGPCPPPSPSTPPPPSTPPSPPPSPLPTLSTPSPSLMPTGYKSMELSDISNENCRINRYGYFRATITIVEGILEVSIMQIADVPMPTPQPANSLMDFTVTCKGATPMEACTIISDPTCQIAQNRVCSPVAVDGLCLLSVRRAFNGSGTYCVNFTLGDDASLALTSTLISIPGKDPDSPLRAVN
Description: Purified full-length affinity matured, anti-GPNMB antibodies were evaluated for their ability to block binding of mouse GPNMB-Fc to SVEC cells to calculate the ligand blocking potency of each clone. Briefly, 2 μg/ml soluble mGPNMB-Fc (mouse IgG2A Fc) diluted in binding buffer was pre-complexed with increasing concentrations of anti-GPNMB antibody or human IgG1 isotype control in 96-well plates. Subsequently, 100,000 SVEC cells were added per well and incubated on ice for 30 minutes. Soluble GPNMB-Fc bound to cell surface was detected with fluorescent anti-mouse IgG2A secondary antibody and measured on FACSCanto. Curves were fit using nonlinear regression analysis with Graphpad Prism 6 software.

[5] = target: T2, full-length untagged human GPNMB …; assay: FACS titration, FS293-huGPNMB+ cells
Description: (§1) Affinity matured anti-GPNMB antibodies of the present disclosure were examined to determine their ability to bind human and mouse GPNMB expressed on FS293-huGPNMB+ or B16F10 cells, respectively. Cell-based affinity measurements were performed to ascertain the apparent affinities of anti-GPNMB antibodies to cell-surface expressed GPNMB. Serial dilutions of anti-GPNMB antibodies of the present disclosure were added to 100,000 FS293-huGPNMB+ or B16F10 cells and allowed to achieve binding equilibrium at 4° C. After addition of fluorescently labeled secondary antibody and brief washing steps, MFI values as a function of titrated antibody concentration were recorded via FACS analysis. Equilibrium binding curves were fit using nonlinear regression analysis with Graphpad Prism 6 software.

[6] = target: T2, full-length untagged human GPNMB …; assay: cell-based or functional assay; remark: listed apart in the source
[7] = target: T1, mouse GPNMB endogenously expressed on …; assay: FACS titration, B16F10 cells; remark: listed apart in the source
Description: as §1

B1: anti-GPNMB antibody GPN-38 (antibody, human IgG1, V domains shown)
VH: QVQLQQPGAELVRPGTSVRLSCKASGYTFTSYWIHWVKQRPGRGLEWIGVIDPSDSYTNYNQQFNVKATLTVDTSSSAAYMQLSSLTSEDSAVYYCARGLITAVNWYFDVWGTGTTVTVSS
VL: DIQMTQSPASLSTSVGEIVTITCRASENIYSYLTWYQQKQGKSPQLLVYNAKTLAEGVPSRFSGSGSGTQFSLKINSLQPEDFGTYYCQHHYGTPLTFGSGTKLEIK
notes: chimeric
EC50 [1]: 5.38 nM

B2: anti-GPNMB antibody GPN-83 (antibody, V domains shown)
VH: QVQLQESGPGLVKPSETLSLTCTVSGISITTGNYRWSWIRQPPGKGLEWIGYIDYSGTITYNPSLKSRVTITRDTSKNQFSLELSSVTAADTAVYYCARDLTHWYFDVWGQGTLVTVSS
VL: DIVMTQSPDSLAVSLGERATINCKSSRSVDYYGIGFVNWYQQKPGQPPKLLIYATSIQGSGVPDRFSGSGSGTDFTLTISSLQAEDVAVYYCQQQKEVPPTFGGGTKVEIK
Inflammasome: Fold Decrease IL-1β (max response at 0.3 µg/ml) [2]: 0.472 fold
EC50 GCase [3]: 0.834 nM
EC50 Lyso Tracker [3]: 1.17 nM
Fold Decrease Lyso Tracker (max response at 1 µg/ml) [3]: 0.755 fold
Fold Increase GCase (max response at 1 µg/ml) [3]: 1.32 fold
IC50 [4]: 1.49 nM
EC50 [5]: 0.203 nM
EC50 PDL1 [6]: 0.91 nM
Fold Increase CD40 (max response at 1 µg/ml) [6]: 2.1 fold
Fold Increase PDL1 (max response at 1 µg/ml) [6]: 4.31 fold
EC50 [7]: 0.293 nM

B3: anti-GPNMB antibody GPN-86 (antibody, V domains shown)
VH: B2 VH
VL: B2 VL with V37L, I57K
Inflammasome: Fold Decrease IL-1β (max response at 0.3 µg/ml) [2]: 0.404 fold
EC50 GCase [3]: 0.166 nM
EC50 Lyso Tracker [3]: 1.2 nM
Fold Decrease Lyso Tracker (max response at 1 µg/ml) [3]: 0.731 fold
Fold Increase GCase (max response at 1 µg/ml) [3]: 1.34 fold
IC50 [4]: 1.26 nM
EC50 [5]: 0.203 nM
EC50 PDL1 [6]: 1.37 nM
Fold Increase CD40 (max response at 1 µg/ml) [6]: 2.15 fold
Fold Increase PDL1 (max response at 1 µg/ml) [6]: 4.57 fold
EC50 [7]: 0.178 nM

B4: anti-GPNMB antibody GPN-85 (antibody, V domains shown)
VH: B2 VH with S67Q
VL: B2 VL with Y32F, V37L, I57H
Inflammasome: Fold Decrease IL-1β (max response at 0.3 µg/ml) [2]: 0.601 fold
EC50 GCase [3]: 2.2 nM
EC50 Lyso Tracker [3]: 1.39 nM
Fold Decrease Lyso Tracker (max response at 1 µg/ml) [3]: 0.755 fold
Fold Increase GCase (max response at 1 µg/ml) [3]: 1.31 fold
IC50 [4]: 1.51 nM
EC50 [5]: 0.385 nM
EC50 PDL1 [6]: 0.97 nM
Fold Increase CD40 (max response at 1 µg/ml) [6]: 2.1 fold
Fold Increase PDL1 (max response at 1 µg/ml) [6]: 4.22 fold
EC50 [7]: 0.317 nM

B5: anti-GPNMB antibody GPN-91 (antibody, V domains shown)
VH: B2 VH
VL: B2 VL with V37L, I57H, V98R
IC50 [4]: 0.64 nM
EC50 [5]: 0.24 nM
EC50 [7]: 0.273 nM

B6: anti-GPNMB antibody GPN-87 (antibody, V domains shown)
VH: B2 VH with F106Y
VL: B2 VL with V37L, I57K
Inflammasome: Fold Decrease IL-1β (max response at 0.3 µg/ml) [2]: 0.428 fold
EC50 GCase [3]: 0.767 nM
EC50 Lyso Tracker [3]: 1.06 nM
Fold Decrease Lyso Tracker (max response at 1 µg/ml) [3]: 0.716 fold
Fold Increase GCase (max response at 1 µg/ml) [3]: 1.36 fold
IC50 [4]: 0.98 nM
EC50 [5]: 0.317 nM
EC50 PDL1 [6]: 1.36 nM
Fold Increase CD40 (max response at 1 µg/ml) [6]: 2.15 fold
Fold Increase PDL1 (max response at 1 µg/ml) [6]: 4.4 fold
EC50 [7]: 0.37 nM

B7: anti-GPNMB antibody GPN-84 (antibody, V domains shown)
VH: B2 VH with F106Y
VL: B2 VL
IC50 [4]: 1.44 nM
EC50 [5]: 0.241 nM
EC50 [7]: 0.33 nM

B8: anti-GPNMB antibody GPN-89 (antibody, V domains shown)
VH: B2 VH with F106Y
VL: B2 VL with V37L, I57H
Inflammasome: Fold Decrease IL-1β (max response at 0.3 µg/ml) [2]: 0.501 fold
EC50 GCase [3]: 0.898 nM
EC50 Lyso Tracker [3]: 1.18 nM
Fold Decrease Lyso Tracker (max response at 1 µg/ml) [3]: 0.757 fold
Fold Increase GCase (max response at 1 µg/ml) [3]: 1.35 fold
IC50 [4]: 1.18 nM
EC50 [5]: 0.167 nM
EC50 PDL1 [6]: 1 nM
Fold Increase CD40 (max response at 1 µg/ml) [6]: 2.12 fold
Fold Increase PDL1 (max response at 1 µg/ml) [6]: 4.22 fold
EC50 [7]: 0.443 nM

B9: anti-GPNMB antibody GPN-88 (antibody, V domains shown)
VH: B2 VH
VL: B2 VL with V37L, I57H, E97H
IC50 [4]: 0.625 nM
EC50 [5]: 0.192 nM
EC50 [7]: 0.262 nM

B10: anti-GPNMB antibody GPN-90 (antibody, V domains shown)
VH: B2 VH with S67Q
VL: B2 VL with V37L, I57H
Inflammasome: Fold Decrease IL-1β (max response at 0.3 µg/ml) [2]: 0.564 fold
EC50 GCase [3]: 0.685 nM
EC50 Lyso Tracker [3]: 1.58 nM
Fold Decrease Lyso Tracker (max response at 1 µg/ml) [3]: 0.761 fold
Fold Increase GCase (max response at 1 µg/ml) [3]: 1.37 fold
IC50 [4]: 1.43 nM
EC50 [5]: 0.148 nM
EC50 PDL1 [6]: 0.68 nM
Fold Increase CD40 (max response at 1 µg/ml) [6]: 2.12 fold
Fold Increase PDL1 (max response at 1 µg/ml) [6]: 4.28 fold
EC50 [7]: 0.416 nM

B11: anti-GPNMB antibody GPN-35 (antibody, human IgG1, V domains shown)
VH: EVQLVESGGGSVRPGRSLKLSCAAAGFTFSDYYMTWVRQAPTKGLEWVASINHDGGGTYYRDSVKGRFTISRDNARSSLYLQMDSLRSEDTGTYYCTTRAGWHWGQGVMVTVSS
VL: DIQMTQSPASLSASLGETVSIECLASEDIYNYLTWYQQKPGKSPQVLIYSASGLQDGVPSRFSGSGSGRQYSLKINGLESEDAATYFCLQDSEYPLTFGSGTKLEIK
notes: chimeric
EC50 [1]: 2.29 nM

B12: anti-GPNMB antibody GPN-52 (antibody, human IgG1, V domains shown)
VH: DVQLQESGPGLVKPSQTVFLTCTVTGISITTGNYRWSWIRQFPGNKLEWIGYIYYSGTITYNPSLTSRITITRDTPKNEFFLEMNSLTAEDTATYYCARDLTHWYFDVWGTGTTVTVSS
VL: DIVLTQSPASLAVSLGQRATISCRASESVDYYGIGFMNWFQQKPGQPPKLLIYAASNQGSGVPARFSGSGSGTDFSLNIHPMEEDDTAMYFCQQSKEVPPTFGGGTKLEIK
notes: chimeric
EC50 [1]: 1.6 nM
